This note sets out measurements from US20210332123A1 (SUZHOU KANOVA BIOPHARMACEUTICAL, published 2021).

The target of this assay is T1, human IL-17C (human, UniProt Q9P0M4 19-197).
T1 sequence (looked up): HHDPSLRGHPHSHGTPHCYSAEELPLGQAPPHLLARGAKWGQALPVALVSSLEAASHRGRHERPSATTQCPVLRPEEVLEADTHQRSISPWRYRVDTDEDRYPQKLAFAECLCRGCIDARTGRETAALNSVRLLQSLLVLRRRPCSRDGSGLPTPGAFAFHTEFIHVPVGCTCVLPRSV
Kind of assay: ELISA (FIG. 4). The protocol:
MaxiSorp 96-well plates (NUNC #449824, www.thermofisher.com) were coated with 2 μg/ml human IL-17A (Cell Signaling #89285F, www.cellsignal.com), human IL-17F (Cell Signaling #8906LC, www.cellsignal.com), human IL-17B (Peprotech #200-28, www.peprotech.com), human IL-17C (R&D systems #1234-IL-025/CF, www.rndsystems.com), human IL-17D ((Peprotech #200-27, www.peprotech.com), human IL-17E (R&D systems #1258-IL-025/CF, www.rndsystems.com) in 1×PBS (50 μl/well) respectively. Plates were incubated at 4° C. overnight. Coating solution was removed and plates were washed once with 200 μl/well PBST (1×PBS with 0.05% tween-20). Then 200 μl/well blocking buffer (1×PBS with 0.05% tween-20, 3% BSA) was added and incubated at room temperature for 1 hour. Blocking buffer was removed and plates were washed three times with 200 μl/well PBST (1×PBS with 0.05% tween-20). The anti-IL-25 antibodies (produced in Example 2), were diluted to 10, 3.33, 1.11, 0.37, 0.123, 0.041, 0.0137, 0.0046, 0.0015, 0.00031, 0.000102, 0.000034 μg/ml by 1×PBS and added to the plates (50 μl/well). Plates were incubated at room temperature for 2 hours. Antibodies in the wells were removed and plates were washed three times with 200 μl/well PBST (1×PBS with 0.05% tween-20) each time. Goat anti-human IgG(H&L)-HRP secondary antibody (Jackson Immuno Research #109-035-088, www.jacksonimmuno.com) was diluted 1:5000 in 1×PBS and added to each well (50 μl/well). Plates were incubated at room temperature for 1 hour. Secondary antibody was removed and plates were washed seven times with 200 μl/well PBST (1×PBS with 0.05% tween-20) each time. 50 μl/well TMB (eBioscience #85-00-4201-56, www.ebioscience.com) was added and plates were incubated at room temperature for several minutes. Then 50 μl/well 2N H₂SO₄ was added to stop the reaction. Plates were read at 450 nm.
(In general: An ELISA detects its analyte on a solid surface through an enzyme-linked reagent.)

B1: murine anti-IL-25 monoclonal antibody 18H3 (antibody, V domains shown)
VH: QVTLKESGPGILQPSQTLSLTCSFSGFSLSTSGMGLGWIRQPSGKGLEWLAHIWWDDVKHYKPALKSRLTISKDISSSQVFLTIASVDTADTATYYCARMGQLHYYGYDYAMDYWGQGTSVTVSS
VL: QIVLTQSPAIMSASPGEKVTISCSASSSVSYMYWYQQKPGSSPKPWIYRTSNLASGVPARFSGSGSGTSYSLTISSMEAEDAATYYCQLYHSYPPTWTFGGGTKLEIK
notes: also called parental antibody; parental murine mAb
On to B1, for which the binding result is recorded as “no binding”.
